Values quoted from earlier work as cited in paper PMC3930863.

Assays:
N-WASP (Homo sapiens) = assay: isothermal titration calorimetry
[1] = target: InlC (Listeria monocytogenes) (UniProt P71451); assay: isothermal titration calorimetry
Sequence of UniProt P71451 (P71451 35-297): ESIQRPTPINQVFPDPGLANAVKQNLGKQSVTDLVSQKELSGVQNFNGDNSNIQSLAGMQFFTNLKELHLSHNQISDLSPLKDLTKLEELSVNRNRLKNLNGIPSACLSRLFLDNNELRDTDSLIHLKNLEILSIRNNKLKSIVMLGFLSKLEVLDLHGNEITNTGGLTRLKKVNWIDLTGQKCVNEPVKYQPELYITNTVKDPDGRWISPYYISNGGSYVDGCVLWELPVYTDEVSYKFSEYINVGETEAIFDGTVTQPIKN

Tuba SH3-6 (from UniProt Q6XZF7)
Kd (N-WASP (Homo sapiens)): 46.5 µM
Kd [1]: 5.4 µM
